Laboratory results: US20230340152A1 (published 2023)

Target: T1, Cynomolgus CD73 ECD (cynomolgus, UniProt A0A2K5V5U7 27-549)
T1 construct: extracellular domain; also called cyno CD73
T1 sequence: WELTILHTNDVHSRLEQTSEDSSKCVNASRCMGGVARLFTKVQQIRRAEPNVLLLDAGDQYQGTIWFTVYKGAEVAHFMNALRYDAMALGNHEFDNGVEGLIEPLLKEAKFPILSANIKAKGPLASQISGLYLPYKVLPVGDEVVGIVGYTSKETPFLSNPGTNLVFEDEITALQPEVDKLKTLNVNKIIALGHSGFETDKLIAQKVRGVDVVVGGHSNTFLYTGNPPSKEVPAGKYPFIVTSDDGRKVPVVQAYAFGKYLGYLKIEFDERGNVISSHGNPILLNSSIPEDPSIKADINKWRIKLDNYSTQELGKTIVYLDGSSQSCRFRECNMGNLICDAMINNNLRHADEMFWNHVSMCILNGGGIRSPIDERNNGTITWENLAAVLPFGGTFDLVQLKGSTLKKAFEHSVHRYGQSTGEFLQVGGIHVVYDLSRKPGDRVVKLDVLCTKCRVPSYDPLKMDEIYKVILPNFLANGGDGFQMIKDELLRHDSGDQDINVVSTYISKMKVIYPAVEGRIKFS
Assay: SPR (Proteon)

B1: MEDI9447 (antibody, human IgG1, lambda, V domains shown)
VH: EVQLLESGGGLVQPGGSLRLSCAASGFTFSSYAYSWVRQAPGKGLEWVSAISGSGGRTYYADSVKGRFTISRDNSKNTLYLQMNSLRAEDTAVYYCARLGYGRVDEWGRGTLVTVSS
VL: QSVLTQPPSASGTPGQRVTISCSGSLSNIGRNPVNWYQQLPGTAPKLLIYLDNLRLSGVPDRFSGSKSGTSASLAISGLQSEDEADYYCATWDDSHPGWTFGGGTKLTVLG
notes: Human IgG1-TM (L234F, L235E, P331S), lambda light chain; also called clone 10.3 antibody; 73combo3
Question: For B1, which Kd is on record?
Answer: 7 pM
